Assay results from IntAct's records for PubMed 17113272.

B1: Armadillo segment polarity protein (Drosophila melanogaster (Fruit fly)), P18824 (parent)
chain: MSYMPAQNRTMSHNNQYNPPDLPPMVSAKEQTLMWQQNSYLGDSGIHSGAVTQVPSLSGKEDEEMEGDPLMFDLDTGFPQNFTQDQVDDMNQQLSQTRSQRVRAAMFPETLEEGIEIPSTQFDPQQPTAVQRLSEPSQMLKHAVVNLINYQDDAELATRAIPELIKLLNDEDQVVVSQAAMMVHQLSKKEASRHAIMNSPQMVAALVRAISNSNDLESTKAAVGTLHNLSHHRQGLLAIFKSGGIPALVKLLSSPVESVLFYAITTLHNLLLHQDGSKMAVRLAGGLQKMVTLLQRNNVKFLAIVTDCLQILAYGNQESKLIILASGGPNELVRIMRSYDYEKLLWTTSRVLKVLSVCSSNKPAIVDAGGMQALAMHLGNMSPRLVQNCLWTLRNLSDAATKVEGLEALLQSLVQVLGSTDVNVVTCAAGILSNLTCNNQRNKATVCQVGGVDALVRTIINAGDREEITEPAVCALRHLTSRHVDSELAQNAVRLNYGLSVIVKLLHPPSRWPLIKAVIGLIRNLALCPANHAPLREHGAIHHLVRLLMRAFQDTERQRSSIATTGSQQPSAYADGVRMEEIVEGTVGALHILARESHNRALIRQQSVIPIFVRLLFNEIENIQRVAAGVLCELAADKEGAEIIEQEGATGPLTDLLHSRNEGVATYAAAVLFRMSEDKPQDYKKRLSIELTNSLLREDNNIWANADLGMGPDLQDMLGPEEAYEGLYGQGPPSVHSSHGGRAFHQQGYDTLPIDSMQGLEISSPVGGGGAGGAPGNGGAVGGASGGGGNIGAIPPSGAPTSPYSMDMDVGEIDAGALNFDLDAMPTPPNDNNNLAAWYDTDC
partner: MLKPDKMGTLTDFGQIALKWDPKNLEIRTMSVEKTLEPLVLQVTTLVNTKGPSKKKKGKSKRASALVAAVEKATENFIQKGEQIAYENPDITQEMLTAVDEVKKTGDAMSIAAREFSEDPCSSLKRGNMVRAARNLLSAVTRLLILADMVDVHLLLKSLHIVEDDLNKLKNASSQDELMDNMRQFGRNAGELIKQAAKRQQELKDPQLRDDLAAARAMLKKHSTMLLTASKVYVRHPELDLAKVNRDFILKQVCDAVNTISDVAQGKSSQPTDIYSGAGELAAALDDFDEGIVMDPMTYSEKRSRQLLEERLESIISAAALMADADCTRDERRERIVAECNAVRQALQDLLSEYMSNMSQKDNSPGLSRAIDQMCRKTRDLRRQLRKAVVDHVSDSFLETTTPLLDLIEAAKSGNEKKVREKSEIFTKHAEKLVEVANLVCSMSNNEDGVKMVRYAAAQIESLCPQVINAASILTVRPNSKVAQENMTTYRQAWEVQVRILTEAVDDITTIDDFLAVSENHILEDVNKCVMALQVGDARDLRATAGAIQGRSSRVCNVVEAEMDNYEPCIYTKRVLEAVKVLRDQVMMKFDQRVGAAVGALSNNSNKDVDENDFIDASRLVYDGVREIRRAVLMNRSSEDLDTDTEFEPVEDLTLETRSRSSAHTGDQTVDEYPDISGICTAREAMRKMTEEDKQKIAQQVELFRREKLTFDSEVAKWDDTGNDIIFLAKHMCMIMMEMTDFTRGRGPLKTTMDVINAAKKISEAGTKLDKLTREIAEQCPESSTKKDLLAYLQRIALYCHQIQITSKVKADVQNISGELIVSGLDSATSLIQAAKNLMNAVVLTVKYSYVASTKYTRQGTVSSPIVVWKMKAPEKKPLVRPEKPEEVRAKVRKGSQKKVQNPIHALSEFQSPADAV
B2: Catenin beta-1 (Mus musculus), Q02248 (parent)
chain: MATQADLMELDMAMEPDRKAAVSHWQQQSYLDSGIHSGATTTAPSLSGKGNPEEEDVDTSQVLYEWEQGFSQSFTQEQVADIDGQYAMTRAQRVRAAMFPETLDEGMQIPSTQFDAAHPTNVQRLAEPSQMLKHAVVNLINYQDDAELATRAIPELTKLLNDEDQVVVNKAAVMVHQLSKKEASRHAIMRSPQMVSAIVRTMQNTNDVETARCTAGTLHNLSHHREGLLAIFKSGGIPALVKMLGSPVDSVLFYAITTLHNLLLHQEGAKMAVRLAGGLQKMVALLNKTNVKFLAITTDCLQILAYGNQESKLIILASGGPQALVNIMRTYTYEKLLWTTSRVLKVLSVCSSNKPAIVEAGGMQALGLHLTDPSQRLVQNCLWTLRNLSDAATKQEGMEGLLGTLVQLLGSDDINVVTCAAGILSNLTCNNYKNKMMVCQVGGIEALVRTVLRAGDREDITEPAICALRHLTSRHQEAEMAQNAVRLHYGLPVVVKLLHPPSHWPLIKATVGLIRNLALCPANHAPLREQGAIPRLVQLLVRAHQDTQRRTSMGGTQQQFVEGVRMEEIVEGCTGALHILARDVHNRIVIRGLNTIPLFVQLLYSPIENIQRVAAGVLCELAQDKEAAEAIEAEGATAPLTELLHSRNEGVATYAAAVLFRMSEDKPQDYKKRLSVELTSSLFRTEPMAWNETADLGLDIGAQGEALGYRQDDPSYRSFHSGGYGQDALGMDPMMEHEMGGHHPGADYPVDGLPDLGHAQDLMDGLPPGDSNQLAWFDTDL
partner: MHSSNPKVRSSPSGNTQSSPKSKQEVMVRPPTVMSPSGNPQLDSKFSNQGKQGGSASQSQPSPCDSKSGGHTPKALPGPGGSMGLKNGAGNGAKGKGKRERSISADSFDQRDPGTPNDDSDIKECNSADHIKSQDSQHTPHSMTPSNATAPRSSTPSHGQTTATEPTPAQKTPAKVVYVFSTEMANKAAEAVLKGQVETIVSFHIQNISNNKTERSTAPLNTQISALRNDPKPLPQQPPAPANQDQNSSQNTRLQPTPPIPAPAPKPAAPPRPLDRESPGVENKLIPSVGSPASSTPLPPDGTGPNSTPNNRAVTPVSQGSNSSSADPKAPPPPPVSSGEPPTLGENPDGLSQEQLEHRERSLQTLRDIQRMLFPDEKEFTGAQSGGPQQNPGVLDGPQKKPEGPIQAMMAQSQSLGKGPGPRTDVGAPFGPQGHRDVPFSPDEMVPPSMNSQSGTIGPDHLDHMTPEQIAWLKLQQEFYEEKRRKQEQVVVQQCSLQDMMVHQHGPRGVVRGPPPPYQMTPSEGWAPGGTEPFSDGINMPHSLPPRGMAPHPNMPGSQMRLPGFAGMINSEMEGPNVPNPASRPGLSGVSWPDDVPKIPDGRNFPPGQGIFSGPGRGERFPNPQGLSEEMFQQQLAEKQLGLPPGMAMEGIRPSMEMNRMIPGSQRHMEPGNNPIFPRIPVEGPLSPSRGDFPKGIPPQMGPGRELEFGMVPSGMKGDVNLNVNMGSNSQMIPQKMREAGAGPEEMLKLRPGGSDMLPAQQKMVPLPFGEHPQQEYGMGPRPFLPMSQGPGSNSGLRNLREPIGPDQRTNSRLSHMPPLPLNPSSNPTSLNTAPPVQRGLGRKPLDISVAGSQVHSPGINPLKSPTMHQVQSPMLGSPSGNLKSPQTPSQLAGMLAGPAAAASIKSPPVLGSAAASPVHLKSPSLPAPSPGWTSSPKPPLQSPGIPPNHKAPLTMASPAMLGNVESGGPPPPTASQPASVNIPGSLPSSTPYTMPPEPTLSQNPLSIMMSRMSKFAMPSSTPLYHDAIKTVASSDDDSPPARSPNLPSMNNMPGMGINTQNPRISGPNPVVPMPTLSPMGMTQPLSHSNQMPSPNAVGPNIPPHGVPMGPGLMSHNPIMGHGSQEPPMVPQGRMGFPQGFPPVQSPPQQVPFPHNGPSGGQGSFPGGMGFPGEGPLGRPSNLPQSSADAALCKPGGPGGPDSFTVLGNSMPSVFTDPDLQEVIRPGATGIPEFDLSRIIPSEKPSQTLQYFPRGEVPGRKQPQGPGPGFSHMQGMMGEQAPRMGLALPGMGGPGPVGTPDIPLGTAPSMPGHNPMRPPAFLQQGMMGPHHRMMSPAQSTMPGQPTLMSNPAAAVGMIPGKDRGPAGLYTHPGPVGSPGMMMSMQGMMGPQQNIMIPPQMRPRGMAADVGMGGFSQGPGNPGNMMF

Variants of: B1
Details: with ctna_drome alpha-Cat

| Variant | effect of a mutation on the interaction |
| --- | --- |
| Y150A | disrupting interaction |

Variants of: B2
Details: with bcl9_human BCL9, O00512

| Variant | effect of a mutation on the interaction |
| --- | --- |
| D164A | disrupting interaction |
